B1: GST-NT (recombinant GST-fused girdin NT) (domain or fragment, human, UniProt Q3V6T2 1-256, looked up)
chain: MENEIFTPLLEQFMTSPLVTWVKTFGPLAAGNGTNLDEYVALVDGVFLNQVMLQINPKLESQRVNKKVNNDASLRMHNLSILVRQIKFYYQETLQQLIMMSLPNVLIIGKNPFSEQGTEEVKKLLLLLLGCAVQCQKKEEFIERIQGLDFDTKAAVAAHIQEVTHNQENVFDLQWMEVTDMSQEDIEPLLKNMALHLKRLIDERDEHSETIIELSEERDGLHFLPHASSSAQSPCGSPGMKRTESRQHLSVELADA

Experiment [1] addresses B1. As to the kind of experiment: in vitro binding assay.
For experiment [2], the target named is EGFRc-His (EGFR cytoplasmic domain, 669-1210) (UniProt P00533 669-1210). As to the kind of experiment: pull-down.

Ends that are not written are not given here.

As to KLLMIIHDRREFAKFEKEKMNAKWDTGENPIYKSAVTTVVNPKYEGK (domain or fragment, UniProt P05556 752-798, looked up, also: His tag, position and length not given here) [ITGB1c-His (integrin β1 cytoplasmic domain, 752-798)], the binding result in experiment [1] is “binds”.

Take B1: the binding result in experiment [2] is on record as “binds”.

Values taken from PMC4195775 (The EMBO Journal, 2014).
